pKd: −log10 of the molar value.

In assay [1] the target is soluble domain of Arabidopsis thaliana cytochrome c1 (Arabidopsis thaliana) (UniProt Q9FKS5). As to the kind of experiment: SPR; SPRi; Cc1 immobilised by direct amine coupling on a CS SPRi-Biochip (10 and 15 uM drops); WT or Y48pCMF Cc flowed at 2.5 to 10 uM, 50 uL/min; 298 K; 10 mM sodium phosphate buffer pH 6.5; reference spots with rabbit serum albumin subtracted; 1:1 binding model.

Assay [2] shares this target.
Target sequence in this assay (Q9FKS5 64-265): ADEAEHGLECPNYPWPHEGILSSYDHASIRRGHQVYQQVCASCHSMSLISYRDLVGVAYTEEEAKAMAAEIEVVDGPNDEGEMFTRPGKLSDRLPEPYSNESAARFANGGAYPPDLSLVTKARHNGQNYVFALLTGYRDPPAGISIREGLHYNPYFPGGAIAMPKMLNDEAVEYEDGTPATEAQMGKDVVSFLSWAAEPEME
For assay [3] the target is unchanged. As to the kind of experiment: single-molecule force spectroscopy (AFM); Cc1 anchored on Au(111); Cc (E104C) anchored to the silicon AFM tip through a PEG27 linker; retraction at 1 um/s; 50 mM phosphate buffer pH 6.5; room temperature.
Target sequence in this assay (Q9FKS5 64-265): as above
Assay [4] has the same target. As to the kind of experiment: dynamic force spectroscopy (AFM); Cc1 anchored on Au(111); Cc (E104C) anchored directly to Au-coated AFM tips by thiol-Au; retraction velocities 0.5 to 4 um/s; 50 mM phosphate buffer pH 6.5; Bell-Evans model.
Target sequence in this assay (Q9FKS5 64-265): as above

Chain of Y48pCMF cytochrome c E104C (P99999 1-48, stated change not applied): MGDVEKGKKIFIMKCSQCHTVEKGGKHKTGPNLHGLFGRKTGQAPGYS

For orientation: pKd means the Kd on a negative log10 scale, so that one unit is a factor of ten. Higher therefore signals a small Kd. For orientation: koff means a measure of how fast the partners let go of each other. Low values mean slow dissociation, high ones fast dissociation. A word on the kon: it is a measure of how fast the partners come together. For the substance “Y48pCMF cytochrome c (from UniProt P99999 1-105) (natural protein)”, in assay [1], the pKd was 6.45, the koff was 0.00358 s⁻¹ and the kon was 10000 M⁻¹ s⁻¹.

“Y48pCMF cytochrome c E104C (from UniProt P99999 1-105) (natural protein)”: the conductance of current blinks (EC-STM static break junction, bias 0.8 V, 50 mM phosphate buffer pH 6.5), Gaussian fit of the main peak in assay [2] was 7.4e-06 G0. For the same substance, in assay [3], the unbinding force Fr, centre of the Gaussian fit was found to be 77 pN and the unbinding force Fr, mean came out at 91 pN. Also, the rate of force-activated unbinding k^ou (Bell-Evans model) in assay [4] came out at 48 s⁻¹.

The values are drawn from publication PMC9675734.
